We go through three substances from US20240117018A1.

Common to all, as to assay: cell-based or functional assay
Assay [1] deals with Env of HIV-1 pseudovirus 3365.v2.c2 (HIV-1).
Assay [2] addresses Env of HIV-1 pseudovirus 3415.v1.c1 (HIV-1).
The target of assay [3] is 0260.v5.c36 Env pseudovirus (HIV-1).
For assay [4], the target named is 1012_11_TC21_3257 Env pseudovirus (HIV-1).
Assay [5] deals with 1056_10_TA11_1826 Env pseudovirus (HIV-1).
Assay [6] has as its target 249M B10 Env pseudovirus (HIV-1).
Assay [7] addresses 62357_14_D3_4589 Env pseudovirus (HIV-1).
The target of assay [8] is 6535.3 Env pseudovirus (HIV-1).
Assay [9] deals with 928-28 Env pseudovirus (HIV-1).
Assay [10] deals with BF1266.431a Env pseudovirus (HIV-1).
The target of assay [11] is CAAN5342.A2 Env pseudovirus (HIV-1).
The target in assay [12] is CAP210.2.00.E8 Env pseudovirus (HIV-1).
Assay [13] deals with CNE17 Env pseudovirus (HIV-1).
Assay [14] concerns the target CNE20 Env pseudovirus (HIV-1).
For assay [15], the target named is CNE21 Env pseudovirus (HIV-1).
The target in assay [16] is Ce1086_B2 Env pseudovirus (HIV-1).
Assay [17] deals with Ce1172_H1 Env pseudovirus (HIV-1).
Assay [18] deals with Ce1176_A3 Env pseudovirus (HIV-1).
The target in assay [19] is Ce2010_F5 Env pseudovirus (HIV-1).
The target in assay [20] is Ce703010054_2A2 Env pseudovirus (HIV-1).
Assay [21] deals with Ce704809221_1B3 Env pseudovirus (HIV-1).
Assay [22] addresses Du156.12 Env pseudovirus (HIV-1).
Assay [23] concerns the target Du422.1 Env pseudovirus (HIV-1).
Assay [24] has as its target HIV-16055-2.3 Env pseudovirus (HIV-1).
The target of assay [25] is PVO.4 Env pseudovirus (HIV-1).
For assay [26], the target named is Q461.e2 Env pseudovirus (HIV-1).
Assay [27] has as its target Q769.d22 Env pseudovirus (HIV-1).
Assay [28] addresses QH0692.42 Env pseudovirus (HIV-1).
The target in assay [29] is THRO4156.18 Env pseudovirus (HIV-1).
Assay [30] concerns the target TRO.11 Env pseudovirus (HIV-1).
The target of assay [31] is WITO4160.33 Env pseudovirus (HIV-1).
Assay [32] has as its target ZM109F.PB4 Env pseudovirus (HIV-1).
Assay [33] concerns the target ZM197M.PB7 Env pseudovirus (HIV-1).
The target in assay [34] is ZM214M.PL15 Env pseudovirus (HIV-1).
The target of assay [35] is ZM233M.PB6 Env pseudovirus (HIV-1).
Assay [36] concerns the target ZM247v1(Rev-) Env pseudovirus (HIV-1).
Assay [37] concerns the target HIV-1 Env pseudovirus 3365.v2.c2 (HIV-1).

A value given as a limit tells only on which side of the number the result lay.

For 10-1074 (antibody), in assay [1], the IC50 was found to be 0.131 µg/mL and the 80% effect concentration (IC80) was 0.45 µg/mL. For the same substance, in [2], the IC50 was more than 50 µg/mL and the IC80 was more than 50 µg/mL.
With PGT121 (antibody), the IC50 is 0.053 µg/mL in assay [3]; 0.003 µg/mL in [4]; 0.004 µg/mL in assay [5]; more than 50 µg/mL in [6]; 2.6 µg/mL in assay [7]; 0.002 µg/mL in [8]. Also, the IC50 in assay [9] is 44.2 µg/mL; in assay [10] it was more than 50 µg/mL; in assay [11], 0.007 µg/mL; in assay [12], 26.3 µg/mL; in assay [13], 7.6 µg/mL; in [14], less than 0.001 µg/mL. For the same substance, the half-inhibitory concentration (IC50) in assay [15] was 0.007 µg/mL; in assay [16], less than 0.001 µg/mL; in assay [18], 0.013 µg/mL; in [19], more than 50 µg/mL; in assay [20], more than 50 µg/mL; in assay [21] it was 0.025 µg/mL. In addition, the IC50 in [22] was 0.004 µg/mL; in assay [23], 0.039 µg/mL; in assay [24] it was 0.153 µg/mL; in assay [25], 0.098 µg/mL; in assay [26], more than 50 µg/mL; in assay [27], more than 50 µg/mL. The IC50 in [28] was 0.302 µg/mL; in [29], more than 50 µg/mL; in assay [30], 0.005 µg/mL; in [31], 0.334 µg/mL; in assay [32], 8.64 µg/mL; in [33] it was more than 50 µg/mL. The IC50 in assay [34] was 0.46 µg/mL; in assay [35] it was 3.69 µg/mL; in [36] it was 0.028 µg/mL. For the same substance, the concentration for an effect of 80% (IC80) in [3] is 0.197 µg/mL; in assay [4], 0.017 µg/mL; in [5], 0.081 µg/mL; in assay [6], more than 50 µg/mL; in assay [7], more than 50 µg/mL; in [8], 0.008 µg/mL. In addition, the 80% effect concentration (IC80) in assay [9] was more than 50 µg/mL; in assay [10] it was more than 50 µg/mL; in assay [11], 0.023 µg/mL; in assay [12] it was more than 50 µg/mL; in [13], more than 50 µg/mL; in assay [14], 0.002 µg/mL. Further, the IC80 in [15] is 0.035 µg/mL; in assay [16], less than 0.001 µg/mL; in assay [17], 0.036 µg/mL; in assay [18], 0.035 µg/mL; in assay [19], more than 50 µg/mL; in assay [20], more than 50 µg/mL. Besides, the concentration for an effect of 80% (IC80) in assay [21] was 0.126 µg/mL; in assay [22] it was 0.017 µg/mL; in assay [23], 0.143 µg/mL; in assay [24], 4.8 µg/mL; in [25], 0.343 µg/mL; in assay [26] it was more than 50 µg/mL. Besides, the IC80 in [27] is more than 50 µg/mL; in assay [28], 2.31 µg/mL; in assay [29] it was more than 50 µg/mL; in assay [30] it was 0.025 µg/mL; in assay [31], 2.35 µg/mL; in assay [32], more than 50 µg/mL. In addition, the 80% effect concentration (IC80) in assay [33] was more than 50 µg/mL; in assay [34] it was 2.04 µg/mL; in assay [36], 0.082 µg/mL.
In [37], VRC01 (antibody) gave an IC50 (Titer in TZM.bl cells) of 0.06 µg/mL and an IC80 (Titer in TZM.bl cells) of 0.17 µg/mL.
